Changes are numbered by the printed parent chain. Names may count otherwise.
B1: NΔ150-hTPH2 A328V (domain or fragment)
chain: not shown
B2: NΔ150-hTPH2 A328E (domain or fragment)
chain: not shown
B3: NΔ150-hTPH2, wild type (human tryptophan hydroxylase 2 lacking the N-terminal 150 amino acid regulatory domain) (domain or fragment)
chain: not shown
B4: Human tryptophan hydroxylase 2, full-length wild type (enzyme, UniProt Q8IWU9 1-490, looked up)
chain: MQPAMMMFSSKYWARRGFSLDSAVPEEHQLLGSSTLNKPNSGKNDDKGNKGSSKREAATESGKTAVVFSLKNEVGGLVKALRLFQEKRVNMVHIESRKSRRRSSEVEIFVDCECGKTEFNELIQLLKFQTTIVTLNPPENIWTEEEELEDVPWFPRKISELDKCSHRVLMYGSELDADHPGFKDNVYRQRRKYFVDVAMGYKYGQPIPRVEYTEEETKTWGVVFRELSKLYPTHACREYLKNFPLLTKYCGYREDNVPQLEDVSMFLKERSGFTVRPVAGYLSPRDFLAGLAYRVFHCTQYIRHGSDPLYTPEPDTCHELLGHVPLLADPKFAQFSQEIGLASLGASDEDVQKLATCYFFTIEFGLCKQEGQLRAYGAGLLSSIGELKHALSDKACVKAFDPKTTCLQECLITTFQEAYFVSESFEEAKEKMRDFAKSITRPFSVYFNPYTQSIEILKDTRSIENVVQDLRSDLNTVCDALNKMNQYLGI
B5: Human tryptophan hydroxylase 2, full-length A328V variant (rs2887147) (enzyme, UniProt Q8IWU9 1-490, looked up)
chain: B4 chain with A328V

Target: the molecule itself
Assay: SEC

Stoichiometry N, 4:
B1
B2
B3
B4
B5

Source: paper PMC10440358 (Biochemistry and Biophysics Reports, 2023)
